We go through three molecules from ChEMBL document CHEMBL1124703, “Analogues of carbamyl aspartate as inhibitors of dihydroorotase: preparation of boronic acid transition-state analogues and a zinc chelator carbamylhomocysteine” (J Med Chem, 1990).

Holding throughout (conditions): Cricetulus griseus
One data set relates to NC(=O)NC(CC(=O)O)C(=O)O. The experiment in a line: Kinetic constant for the inactivation of Dihydroorotase (DHO) at pH 6.0.
Another data set has as its system NC(=O)NC(CCS)C(=O)O. The experiment in a line: Kinetic constant for the inactivation against Dihydroorotase (DHO) at a concentration of 3 uM.
Data set [1] has as its target Multifunctional protein CAD (Homo sapiens) (UniProt P27708). The experiment in a line: Inhibitory activity against Dihydroorotase (DHO) using CAD protein at concentrations >=6 mM; no inhibition was observed.
Data set [2] has the same target. Put plainly: Inhibitory activity against Dihydroorotase (DHO); no reproducible apparent Ki data.

Multifunctional protein CAD (Homo sapiens), sequence (P27708 whole entry): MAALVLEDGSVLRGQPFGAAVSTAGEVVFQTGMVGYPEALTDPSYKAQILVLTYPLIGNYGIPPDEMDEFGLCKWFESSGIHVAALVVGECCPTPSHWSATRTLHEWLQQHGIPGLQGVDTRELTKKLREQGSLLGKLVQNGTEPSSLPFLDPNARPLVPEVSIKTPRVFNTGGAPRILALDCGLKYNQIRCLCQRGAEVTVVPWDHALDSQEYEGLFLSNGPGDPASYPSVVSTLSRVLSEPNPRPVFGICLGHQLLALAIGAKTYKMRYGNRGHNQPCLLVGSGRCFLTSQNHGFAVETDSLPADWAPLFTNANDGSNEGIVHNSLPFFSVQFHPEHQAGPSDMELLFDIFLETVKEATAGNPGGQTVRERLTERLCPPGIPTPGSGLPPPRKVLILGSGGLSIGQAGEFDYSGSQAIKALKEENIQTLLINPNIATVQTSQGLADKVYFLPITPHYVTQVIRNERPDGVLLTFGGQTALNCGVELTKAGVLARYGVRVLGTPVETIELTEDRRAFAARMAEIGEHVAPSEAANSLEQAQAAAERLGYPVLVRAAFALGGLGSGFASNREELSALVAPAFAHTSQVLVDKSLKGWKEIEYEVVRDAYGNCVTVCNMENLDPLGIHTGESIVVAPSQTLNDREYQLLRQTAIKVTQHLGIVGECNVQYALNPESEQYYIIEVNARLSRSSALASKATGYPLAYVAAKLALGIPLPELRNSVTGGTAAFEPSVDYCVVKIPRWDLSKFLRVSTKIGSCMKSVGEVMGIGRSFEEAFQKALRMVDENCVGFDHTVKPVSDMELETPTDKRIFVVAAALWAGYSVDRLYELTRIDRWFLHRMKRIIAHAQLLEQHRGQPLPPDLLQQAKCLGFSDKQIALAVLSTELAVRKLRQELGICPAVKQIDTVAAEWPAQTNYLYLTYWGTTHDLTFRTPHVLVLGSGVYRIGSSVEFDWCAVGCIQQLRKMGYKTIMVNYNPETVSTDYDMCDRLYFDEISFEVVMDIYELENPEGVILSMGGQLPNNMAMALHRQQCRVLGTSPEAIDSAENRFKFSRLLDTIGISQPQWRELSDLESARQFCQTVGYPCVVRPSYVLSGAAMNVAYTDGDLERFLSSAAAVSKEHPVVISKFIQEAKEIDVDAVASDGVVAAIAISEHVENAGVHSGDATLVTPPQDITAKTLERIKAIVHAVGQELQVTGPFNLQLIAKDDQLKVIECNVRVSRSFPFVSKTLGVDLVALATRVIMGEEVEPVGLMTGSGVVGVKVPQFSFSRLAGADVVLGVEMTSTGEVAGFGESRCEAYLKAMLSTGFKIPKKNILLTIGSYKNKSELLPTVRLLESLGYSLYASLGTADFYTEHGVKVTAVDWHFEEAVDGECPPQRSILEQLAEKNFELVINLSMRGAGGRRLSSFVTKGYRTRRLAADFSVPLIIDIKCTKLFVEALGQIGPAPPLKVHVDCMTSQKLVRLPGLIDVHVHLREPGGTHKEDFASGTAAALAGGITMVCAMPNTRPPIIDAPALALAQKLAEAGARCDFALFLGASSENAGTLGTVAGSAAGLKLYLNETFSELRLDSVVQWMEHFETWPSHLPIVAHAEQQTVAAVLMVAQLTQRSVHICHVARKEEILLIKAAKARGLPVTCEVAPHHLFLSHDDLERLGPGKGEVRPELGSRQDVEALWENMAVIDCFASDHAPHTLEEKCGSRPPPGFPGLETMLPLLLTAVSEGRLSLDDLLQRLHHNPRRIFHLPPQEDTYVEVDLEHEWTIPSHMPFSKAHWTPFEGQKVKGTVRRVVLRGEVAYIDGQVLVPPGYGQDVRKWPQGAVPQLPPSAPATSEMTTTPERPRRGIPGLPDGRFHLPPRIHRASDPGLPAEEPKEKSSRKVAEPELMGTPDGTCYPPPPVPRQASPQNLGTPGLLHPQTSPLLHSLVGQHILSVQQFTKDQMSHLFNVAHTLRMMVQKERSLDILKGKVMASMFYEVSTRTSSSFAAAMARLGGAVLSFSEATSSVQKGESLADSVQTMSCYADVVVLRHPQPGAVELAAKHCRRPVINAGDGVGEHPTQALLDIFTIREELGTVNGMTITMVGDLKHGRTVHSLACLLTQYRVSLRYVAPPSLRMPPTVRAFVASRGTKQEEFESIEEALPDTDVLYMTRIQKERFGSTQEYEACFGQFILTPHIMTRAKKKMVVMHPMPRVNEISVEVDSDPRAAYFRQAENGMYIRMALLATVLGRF

In general, Km refers to the substrate concentration at which the rate is half of its maximum. As usually defined, the kinact is the maximal first-order rate at which the target is inactivated. Regarding “Multifunctional protein CAD (Homo sapiens), P27708”, in the data set on NC(=O)NC(CC(=O)O)C(=O)O, the Km came out at 50 µM. Further, the kinact in the data set on NC(=O)NC(CCS)C(=O)O was found to be 460000 min⁻¹. Regarding `NC(=O)NC(CB(O)O)C(=O)O` (centres undefined), in data set [1], the inhibition entry was “No inhibition”. `COC(=O)C(CB(O)O)NC(N)=O` (centres undefined): the inhibition entry in data set [2] is “no reproducible apparent Ki data”.
